Measured values reported in patent publication US7968306B2 (Wisconsin Alumni Research Foundation, priority 2002, dated 2011).

T1: porcine pancreatic lipase (Sus scrofa, UniProt P00591)
T1 construct: purchased Sigma; host or cells: porcine pancreas
T1 sequence (P00591 1-450): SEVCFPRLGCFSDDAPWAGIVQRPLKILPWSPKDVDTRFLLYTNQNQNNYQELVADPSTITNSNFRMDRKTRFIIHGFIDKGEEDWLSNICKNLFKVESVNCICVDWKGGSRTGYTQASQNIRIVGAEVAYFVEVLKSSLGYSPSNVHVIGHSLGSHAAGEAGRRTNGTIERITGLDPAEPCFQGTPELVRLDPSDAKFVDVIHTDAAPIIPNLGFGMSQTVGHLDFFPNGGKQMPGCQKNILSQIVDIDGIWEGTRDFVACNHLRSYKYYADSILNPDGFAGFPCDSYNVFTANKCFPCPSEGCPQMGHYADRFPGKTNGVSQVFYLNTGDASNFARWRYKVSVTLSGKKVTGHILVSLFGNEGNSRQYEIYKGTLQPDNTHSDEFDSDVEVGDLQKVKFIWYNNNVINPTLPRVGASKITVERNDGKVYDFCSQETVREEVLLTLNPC

B1: Truncated α1-AT: 48 kDa truncated human α1-AT (16His to 357Pro) isolated from heat-treated CF BALF; PLA2 stimulator (protein, listed as Homo sapiens)
chain: HDQDHPTFDKITPDLAEFAFSLYRQLAHQSDSTNIFFSPVSIAAAFAMLSLGAKGDTHDEILEGLNFNLTEIPEAQIHEGFQELLRTLNQPDSQLQLTTGNGLFLSEFLKLFDKFLEDFKKLYHSEAFTVNFGTDEEAKKQINDYVEKGTQGKIVNLVKELDRDTVFALVNYIFFKGKWERPFEVKDTEEEDFHVDQVTTVKVPMMKRLGMFNIQHCKKLSSWVLLMKYLGNATAIFFLPDEGKLQHLENELTHDIITKFLENEDRRSASLHLPKLSITGTYDLKSVLGQLGITKVFSNGADLSGVTEEAPLKLSKAVHKAVLTIDEKGTEAAGAMFLEAIP
B2: annexin I: native rabbit lung annexin I protein (protein, UniProt P51662 2-346, looked up)
Annexin A1: AMVSEFLKQAWFIDNEEQDYINTVKTYKGGPGSAVSPYPAFNPSSDVAALHQAIMVKGVDEATIIDILTKRNNAQRQQIKAAYLQEKGKPLDEVLKKALTGHLEEVVLALLKTPAQFDADELRAAMKGLGTDEDTLIEILASRNNKEIREINRVYREELKRDLAKDIASDTSGDFQKALLSLAKGDRSEDFGVNEDLADTDARALYEAGERRKGADVNVFTTILTTRSYLHLRRVFQKYSKYSQHDMNKVLDLELKGDIEKCLTAIVQCATCKPAYFAEKLYQAMKGAGTRHKALIRIMVSRSEVDMNDIKAFYQKKYGVSLCQAILDETKGDYEKILVALCGGN
B3: annexin VIII: native rabbit lung annexin VIII protein (protein, UniProt O97529 1-327, looked up)
Annexin A8: MAWWKAWVEQEGVTVKGSPHFNPVPDAETLYKAMKGIGTNEQAIIDVLTRRSSAQRQQIAKSFKAQFGSDLTETLKSELSGKFERLIVALMYPPYRYEAKELHDAMKGLGTKEGVIIEILASRTKNQLQEIMKAYEEDYGSSLEEDIQADTSGYLERILVCLLQGSRDDVTGFVDPGLALQDAQDLYAAGEKICGTDEMKFITILCTRSARHLMRVFEEYEKIANKSIEDSIKSETHGSLEEAMLTIVKCTRNLHCYFAERLHYAMKGAGTLDGTLIRNIVSRSEIDLNLIKGHYKKMYGKTLSSMIMEDTSGDYKNALLSLVGSDP

Assays:
[1] = target: T1, porcine pancreatic lipase; experiment: Fluorescent assay of lipase after PLC reaction; format: biochemical; conditions: FIG. 42
[2] = target: PLC (Clostridium perfringens) (Clostridium perfringens, UniProt P0C216)
porcine pancreatic PLA2 = porcine pancreatic PLA2 (Sus scrofa, UniProt P00592); experiment: Continuous fluorescent assay of PLA2 (Bis-BODIPY FL C11-PC labeled DOPC-PG liposomes); conditions: for loss of activity after treating the protein in boiling water: boiling water for 5 min; for TFI: 5 ng PLA2, 37° C., 2 min; for TFI / % of control: truncated α1-AT 6 μg, intact α1-AT 20 μg, albumin 20 μg
porcine pancreatic PLA2, sequence (P00592 23-146): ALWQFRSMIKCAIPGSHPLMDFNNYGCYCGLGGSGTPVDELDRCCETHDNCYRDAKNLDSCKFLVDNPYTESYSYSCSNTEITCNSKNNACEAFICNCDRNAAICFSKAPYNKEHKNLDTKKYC

pancreatic PLA2 = target: T2, pancreatic PLA2 (Sus scrofa, UniProt P00592); experiment: Radioactive assay of PLA2 (14C-labeled liposomes); format: biochemical, porcine; conditions: 10 μg rabbit lung annexin, FIG. 25
T2 construct: purchased Sigma Chemical (St. Louis, Mo.); host or cells: porcine pancreas
T2 sequence (P00592 23-146): as above
Method: Radioactive assay of PLA2. […] In some tests, 25-100 μg of CF BALF proteins, or 10 μg of rabbit lung annexin I or annexin VIII or both were added to the reaction mixture as specified. The reaction was carried out at room temperature for 30 sec and stopped by adding 2 ml of chloroform:methanol (1:2 vol) followed by addition of 0.4 ml water, and 10 μl of egg PC and lysoPC (20 nmol) which was used as carrier. The test tube was stirred using a Vortex. Lipids were extracted by adding additional 0.6 ml water and 0.6 ml chloroform. After agitating on a vortex, the mixture was centrifuged at 2,000 rpm for 10 min. The chloroform layer was withdrawn and transferred to a new test tube using a Pasteur pipette. Chloroform was evaporated to dryness under a flow of nitrogen. PC and lysoPC were isolated by the methods of silica gel thin-layer chromatography (TLC) using a developing solvent system of chloroform/methanol/water in a ratio of 65/45/5 as described previously (41). Lipids on the TLC plate were visualized by exposure of the TLC plate in an iodine tank. […] Radioactivity in the vial was determined by using a beta scintillation counter. PLA2 activity was expressed as either decrease in PC radioactivity or increase in fatty acid or lysoPC radioactivity as described previously (41).

[3] = with lysoPC (9 nmol), control LysoPC + PLA2
[4] = without lysoPC, control PLA2 (5 ng)

Molecule	effect on lipase activity [1]	effect on PLC activity [2]	loss of activity after treating the protein in boiling water (porcine pancreatic PLA2)	TFI (porcine pancreatic PLA2; with lysoPC (9 nmol))	% of control (porcine pancreatic PLA2; [3])	TFI (porcine pancreatic PLA2; without lysoPC)	% of control (porcine pancreatic PLA2; [4])	inhibition of PLA2 and PLA2-s activities (pancreatic PLA2)	further results
Intact α1-AT: intact 52 kDa human serum α1-AT; serum PLA2-s (protein-II) purified from human serum	no effect on the lipase activity	effectively inhibited PLC activity	less than 20%	29.81	151.4%	68.96	183.3%		effect on PLA2 activity (porcine pancreatic PLA2; wide range of protein concentrations): exhibited only PLA2-stimulating activity
Human serum α1-AT: human serum α1-AT obtained from Sigma Chemical Co.		inhibited PLC activity	not affected						effect of commercial α1-AT on PLA2 activity (porcine pancreatic PLA2; Sigma product, FIG. 44A): stimulated PLA2 activity
B1	no effect on the lipase activity	effectively inhibited PLC activity	heat stable	31.82	161.6%	57.23	152.1%		effect of isolated PLA2-s on pancreatic PLA2 activity (porcine pancreatic PLA2; 6 μg PLA2-s, FIG. 29B): exhibited PLA2-stimulating activity; effect on PLA2 activity with 50% PC-50% PG liposomes (porcine pancreatic PLA2; 6 μg truncated α1-AT, 37° C.): markedly stimulated; effect on PLA2 activity with 90% PC-10% PG liposomes (porcine pancreatic PLA2; 6 μg truncated α1-AT, 37° C.): did not significantly enhance the PLA2 activity; effect on PLA2 activity with 100% PC liposomes (porcine pancreatic PLA2; 6 μg truncated α1-AT, 37° C.): did not stimulate PLA2 activity
B2								significantly inhibited	inhibition of PLA2 activity and of the effect of truncated α1-AT on PLA2 stimulation (porcine pancreatic PLA2; fluorescent assay, FIG. 46B): markedly inhibited
B3								significantly inhibited	
